No end group written: not given here.
B1: acetyl-AAAAAAK-CONH2 (peptide)
peptide: Ac-AAAAAAK-NH2
B2: acetyl-AAAAAAD-COOH (peptide)
peptide: Ac-AAAAAAD-OH
B3: DAAAAAA-COOH (peptide)
peptide: DAAAAAA-OH
B4: KAAAAAA-CONH2 (peptide)
peptide: KAAAAAA-NH2

Target: P-glycoprotein (UniProt P08183 1-1280)
Experiment: cell-based or functional assay

Chain of P-glycoprotein (P08183 whole entry): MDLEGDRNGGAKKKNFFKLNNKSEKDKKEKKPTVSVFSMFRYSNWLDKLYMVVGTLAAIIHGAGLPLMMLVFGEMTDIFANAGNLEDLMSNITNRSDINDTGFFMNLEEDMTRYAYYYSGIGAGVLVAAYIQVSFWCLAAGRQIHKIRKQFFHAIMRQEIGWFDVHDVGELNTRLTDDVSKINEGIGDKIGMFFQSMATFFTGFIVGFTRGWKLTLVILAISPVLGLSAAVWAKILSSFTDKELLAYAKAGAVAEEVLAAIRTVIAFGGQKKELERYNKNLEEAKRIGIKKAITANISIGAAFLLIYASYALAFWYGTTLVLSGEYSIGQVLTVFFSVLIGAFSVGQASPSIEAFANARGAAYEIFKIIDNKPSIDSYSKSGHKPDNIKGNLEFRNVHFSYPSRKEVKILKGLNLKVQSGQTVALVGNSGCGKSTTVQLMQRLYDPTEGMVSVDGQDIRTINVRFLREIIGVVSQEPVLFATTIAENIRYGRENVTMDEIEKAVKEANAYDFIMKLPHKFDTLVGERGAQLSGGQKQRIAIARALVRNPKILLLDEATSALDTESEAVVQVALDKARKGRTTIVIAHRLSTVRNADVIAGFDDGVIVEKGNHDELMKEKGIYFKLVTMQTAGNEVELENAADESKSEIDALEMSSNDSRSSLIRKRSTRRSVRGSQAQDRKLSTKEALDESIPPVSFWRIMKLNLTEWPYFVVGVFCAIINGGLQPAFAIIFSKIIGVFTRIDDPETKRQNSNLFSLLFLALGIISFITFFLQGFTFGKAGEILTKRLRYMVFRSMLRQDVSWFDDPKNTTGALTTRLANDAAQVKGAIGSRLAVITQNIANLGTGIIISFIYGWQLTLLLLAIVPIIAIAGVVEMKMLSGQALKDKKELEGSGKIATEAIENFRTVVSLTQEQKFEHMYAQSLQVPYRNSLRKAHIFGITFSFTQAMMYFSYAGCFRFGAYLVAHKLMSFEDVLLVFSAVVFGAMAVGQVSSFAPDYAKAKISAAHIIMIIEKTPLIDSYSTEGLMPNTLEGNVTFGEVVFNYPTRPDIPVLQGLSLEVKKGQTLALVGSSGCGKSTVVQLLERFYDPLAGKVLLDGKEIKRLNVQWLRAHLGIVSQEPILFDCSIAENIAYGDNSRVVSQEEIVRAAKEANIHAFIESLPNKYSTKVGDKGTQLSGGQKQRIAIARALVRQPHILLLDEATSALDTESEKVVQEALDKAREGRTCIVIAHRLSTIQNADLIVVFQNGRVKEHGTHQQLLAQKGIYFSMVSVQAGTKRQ

Binder	Enhancement ratio of Rhodamine-123 transport against the control, peptide 0.02 mg/ml [ratio]	Enhancement ratio of Rhodamine-123 transport against the control, peptide concentration given as 2 mg/ml (caption: 0.2 mg/mL) [ratio]	Papp of Rhodamine-123 through a Caco-2 monolayer (basolateral to apical), peptide 0.02 mg/ml [cm/s]	Papp of Rhodamine-123 through a Caco-2 monolayer (basolateral to apical), peptide concentration given as 2 mg/ml (caption: 0.2 mg/mL) [cm/s]
B1	0.9	1.7	1e-05	1.82e-05
B2	0.9	1.7	1.01e-05	1.84e-05
B3	1.2	1.4	1.3e-05	1.51e-05
B4	1	1	1.08e-05	1.05e-05

Reference: patent publication US20150147384A1 (MIT, published 2015)
